Experimental data published in PMC7171142 (Scientific Reports, 2020).

B1: Recombinant Rh5 (E26-Q526), released from GST by TEV protease (domain or fragment)
chain: ENAIKKTKNQENNLTLLPIKSTEEEKDDIKNGKDIKKEIDNDKENIKTNNAKDHSTYIKSYLNTNVNDGLKYLFIPSHNSFIKKYSVFNQINDGMLLNEKNDVKNNEDYKNVDYKNVNFLQYHFKELSNYNIANSIDILQEKEGHLDFVIIPHYTFLDYYKHLSYNSIYHKSSTYGKCIAVDAFIKKINETYDKVKSKCNDIKNDLIATIKKLEHPYDINNKNDDSYRYDISEEIDDKSEETDDETEEVEDSIQDTDSNHTPSNKKKNDLMNRTFKKMMDEYNTKKKKLIKCIKNHENDFNKICMDMKNYGTNLFEQLSCYNNNFCNTNGIRYHYDEYIHKLILSVKSKNLNKDLSDMTNILQQSELLLTNLNKKMGSYIYIDTIKFIHKEMKHIFNRIEYHTKIINDKTKIIQDKIKLNIWRTFQKDELLKRILDMSNEYSLFITSDHLRQMLYNTFYSKEKHLNNIFHHLIYVLQMKFNDVPIKMEYFQTYKKNKPLTQ
B2: GST-fused recombinant SEMA7A (Q45-H666) with C-terminal His-tag (domain or fragment, human, UniProt O75326 45-666, looked up)
chain: QGHLRSGPRIFAVWKGHVGQDRVDFGQTEPHTVLFHEPGSSSVWVGGRGKVYLFDFPEGKNASVRTVNIGSTKGSCLDKRDCENYITLLERRSEGLLACGTNARHPSCWNLVNGTVVPLGEMRGYAPFSPDENSLVLFEGDEVYSTIRKQEYNGKIPRFRRIRGESELYTSDTVMQNPQFIKATIVHQDQAYDDKIYYFFREDNPDKNPEAPLNVSRVAQLCRGDQGGESSLSVSKWNTFLKAMLVCSDAATNKNFNRLQDVFLLPDPSGQWRDTRVYGVFSNPWNYSAVCVYSLGDIDKVFRTSSLKGYHSSLPNPRPGKCLPDQQPIPTETFQVADRHPEVAQRVEPMGPLKTPLFHSKYHYQKVAVHRMQASHGETFHVLYLTTDRGTIHKVVEPGEQEHSFAFNIMEIQPFRRAAAIQTMSLDAERRKLYVSSQWEVSQVPLDLCEVYGGGCHGCLMSRDPYCGWDQGRCISIYSSERSVLQSINPAEPHKECPNPKPDKAPLQKVSLAPNSRYYLSCPMESRHATYSWRHKENVEQSCEPGHQSPNCILFIENLTAQQYGHYFCEAQEGSYFREAQHWQLLPEDGIMAEHLLGHACALAASLWLGVLPTLTLGLLVH
B3: GST-fused recombinant AMIGO2 (M1-N397) with C-terminal His-tag (domain or fragment, human, UniProt Q86SJ2 1-397, looked up)
chain: MSLRVHTLPTLLGAVVRPGCRELLCLLMITVTVGPGASGVCPTACICATDIVSCTNKNLSKVPGNLFRLIKRLDLSYNRIGLLDSEWIPVSFAKLNTLILRHNNITSISTGSFSTTPNLKCLDLSSNKLKTVKNAVFQELKVLEVLLLYNNHISYLDPSAFGGLSQLQKLYLSGNFLTQFPMDLYVGRFKLAELMFLDVSYNRIPSMPMHHINLVPGKQLRGIYLHGNPFVCDCSLYSLLVFWYRRHFSSVMDFKNDYTCRLWSDSRHSRQVLLLQDSFMNCSDSIINGSFRALGFIHEAQVGERLMVHCDSKTGNANTDFIWVGPDNRLLEPDKEMENFYVFHNGSLVIESPRFEDAGVYSCIAMNKQRLLNETVDVTINVSNFTVSRSHAHEAFN
B4: GST-fused recombinant CyRPA (N27-E362) with C-terminal His-tag (domain or fragment)
chain: NCDSRHVFIRTELSFIKNNVPCIRDMFFIYKRELYNICLDDLKGEEDETHIYVQKKVKDSWITLNDLFKETDLTGRPHIFAYVDVEEIIILLCEDEEFSNRKKDMTCHRFYSNDGKEYNNSEITISDYILKDKLLSSYVSLPLKIENREYFLICGVSPYKFKDDNKKDDILCMASHDKGETWGTKIVIKYDNYKLGVQYFFLRPYISKNDLSFHFYVGDNINNVKNVNFIECTHEKDLEFVCSNRDFLKDNKVLQDVSTLNDEYIVSYGNDNNFAECYIFFNNENSILIKPEKYGNTTAGCYGGTFVKIDENRTLFIYSSSQGIYNIHTIYYANYE

Columns and labels:
[1] = biological target: Recombinant Ecto-PfRipr (D21-N1086), C-terminal His-tag (P. falciparum 3D7) (UniProt O97302); experiment: SPR; single-cycle kinetics, Biacore X100; recombinant PfRipr immobilised on a CM5 chip as ligand; analytes at 3.13, 6.25, 12.5, 25 and 50 nM, contact time 120 s, dissociation 180 s, last dissociation 3000 s
Sequence of Recombinant Ecto-PfRipr (D21-N1086), C-terminal His-tag (P. falciparum 3D7) (O97302 21-1086): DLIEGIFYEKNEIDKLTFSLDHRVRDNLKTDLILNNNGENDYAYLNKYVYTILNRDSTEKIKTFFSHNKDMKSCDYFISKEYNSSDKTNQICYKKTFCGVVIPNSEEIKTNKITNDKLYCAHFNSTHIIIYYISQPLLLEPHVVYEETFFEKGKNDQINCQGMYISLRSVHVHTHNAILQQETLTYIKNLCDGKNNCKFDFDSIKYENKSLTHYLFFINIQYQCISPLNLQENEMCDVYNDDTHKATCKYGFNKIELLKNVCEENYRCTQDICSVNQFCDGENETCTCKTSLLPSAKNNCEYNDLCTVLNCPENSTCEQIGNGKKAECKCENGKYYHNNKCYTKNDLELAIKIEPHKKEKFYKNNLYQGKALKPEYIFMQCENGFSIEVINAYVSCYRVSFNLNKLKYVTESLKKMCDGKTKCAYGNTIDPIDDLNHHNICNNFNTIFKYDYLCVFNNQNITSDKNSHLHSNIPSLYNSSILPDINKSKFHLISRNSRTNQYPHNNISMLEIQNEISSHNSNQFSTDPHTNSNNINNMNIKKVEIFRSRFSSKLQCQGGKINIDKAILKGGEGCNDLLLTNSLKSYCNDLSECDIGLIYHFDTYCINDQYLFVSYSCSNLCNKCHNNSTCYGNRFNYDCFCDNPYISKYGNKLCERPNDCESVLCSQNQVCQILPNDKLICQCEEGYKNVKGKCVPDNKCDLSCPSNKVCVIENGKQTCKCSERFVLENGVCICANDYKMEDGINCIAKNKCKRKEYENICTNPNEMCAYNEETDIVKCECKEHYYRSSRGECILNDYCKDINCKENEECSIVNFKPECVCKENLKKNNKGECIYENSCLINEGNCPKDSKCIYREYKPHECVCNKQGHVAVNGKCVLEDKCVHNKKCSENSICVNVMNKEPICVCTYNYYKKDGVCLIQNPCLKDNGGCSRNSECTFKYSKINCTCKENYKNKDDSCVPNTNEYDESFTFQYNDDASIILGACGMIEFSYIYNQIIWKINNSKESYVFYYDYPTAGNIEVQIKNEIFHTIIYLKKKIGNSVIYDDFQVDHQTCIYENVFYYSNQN

[2] = biological target: T1, Recombinant Ecto-PfRipr (D21-N1086), C-terminal His-tag (P. falciparum 3D7, UniProt O97302 21-1086); experiment: as above; details: both partners purified
T1 sequence (O97302 21-1086): as above

[3] = biological target: T1, Recombinant Ecto-PfRipr (D21-N1086), …; experiment: SPR; single-cycle kinetics, Biacore X100; […], dissociation 180 s, […]; details: both partners purified

Row | Molecule | Kd [2] [nM] | koff [2] [s⁻¹] | kon [2] [M⁻¹ s⁻¹] | further results
1 | GST-fused recombinant NPTN (Q29-L221) with C-terminal His-tag (domain or fragment) |  |  |  | Kd [1]: 24 nM; koff [1]: 6.5e-05 s⁻¹; kon [1]: 2700 M⁻¹ s⁻¹
2 | B1 | 0.48 | 2.9e-05 | 61000 | 
3 | B2 | 0.94 | 4.1e-05 | 44000 | 
4 | B3 | 0.16 | 2e-05 | 120000 | 
5 | B4 |  |  |  | Kd [3]: 69 nM; koff [3]: 0.00016 s⁻¹; kon [3]: 2400 M⁻¹ s⁻¹
